Experimental data as given in patent publication US20230381331A1 (HANMI PHARM, published 2023).
Non-standard residues stand in square brackets, D forms with d. No end group written: not given here. Aib = CC(C)(N)C(=O)O

B1: GIP derivative of SEQ ID NO: 11 (peptide)
peptide: Y[Aib]EGTFISDYSIAMDAIAQQDFVNWLLAQKGKKNDWKHNITQC
modifications: not fully specified; printed as YAibEGT FISDYSIAMDAIAQQDFVNWLLAQKGKKNDWKHNITQC

Molecular target: T1, human GIP receptor (human, UniProt P48546 22-466)
T1 sequence (looked up): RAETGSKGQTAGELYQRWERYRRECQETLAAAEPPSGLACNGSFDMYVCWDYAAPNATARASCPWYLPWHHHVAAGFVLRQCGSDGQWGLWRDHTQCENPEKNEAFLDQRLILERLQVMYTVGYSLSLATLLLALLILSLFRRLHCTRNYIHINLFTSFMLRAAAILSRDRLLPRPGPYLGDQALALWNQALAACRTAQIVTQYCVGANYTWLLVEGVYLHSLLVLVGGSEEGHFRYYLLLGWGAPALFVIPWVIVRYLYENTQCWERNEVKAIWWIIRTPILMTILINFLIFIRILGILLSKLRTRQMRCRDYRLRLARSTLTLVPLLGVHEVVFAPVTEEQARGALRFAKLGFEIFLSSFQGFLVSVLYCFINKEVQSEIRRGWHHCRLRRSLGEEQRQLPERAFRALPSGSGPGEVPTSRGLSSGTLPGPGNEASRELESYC
Assay: cell-based or functional assay

| Binder | In vitro activity of GIP derivative compared to human native GIP in human GIP receptor (%) (cAMP EC50, LANCE cAMP kit, CHO cells) |
| --- | --- |
| Y[Aib]EGTFISDYSIYLDKQAA[Aib]EFVQWLI[Aib]GGPSSGAPPPSC [GIP derivative of SEQ ID NO: 25] | 78.3 |
| Y[Aib]EGTFISDYSIYLDAQAA[Aib]EFVNWLLAQKC (not fully specified) [GIP derivative of SEQ ID NO: 14] | 17.4 |
| B1 | 122 |
| Y[Aib]EGTFISDYSIYLDAQAA[Aib]DFVNWLLAGGPSSGAPPPSC [GIP derivative of SEQ ID NO: 8] | 1.9 |
| Y[Aib]EGTFISDYSIQMDAIAQQDFVNWLLAGGPSSGAPPPSC [GIP derivative of SEQ ID NO: 5] | 12.1 |
| Y[Aib]EGTFISDYSIYLDKQAA[Aib]EFVNWLLAQKC (not fully specified) [GIP derivative of SEQ ID NO: 13] | 31.1 |
| Y[Aib]EGTFISDYSI[Aib]LDKQAA[Aib]EFVNWLL[Aib]GHPSSGAPPPSC [GIP derivative of SEQ ID NO: 24] | 183 |
| Y[Aib]EGTFISDYSIYLDKQAA[Aib]EFVQWLIAGHPSSGAPPPC [GIP derivative of SEQ ID NO: 26] | 66.7 |
| Y[Aib]EGTFISDYSIYLDAQAAKDFVNWLLAGGPSSGAPPPSC [GIP derivative of SEQ ID NO: 9] | 2 |
| Y[Aib]EGTFISDYSIYLDAIAQQDFVNWLLAGGPSSGAPPPSC [GIP derivative of SEQ ID NO: 6] | 17.4 |
| Y[Aib]EGTFISDYSIYLDKQAA[Aib]EFVNWLL[Aib]GHPSSGAPPPSC [GIP derivative of SEQ ID NO: 19] | 66.7 |
| Y[Aib]EGTFISDYSI[Aib]LDKQAA[Aib]EFVNWLL[Aib]GGPSSGAPPPSC [GIP derivative of SEQ ID NO: 21] | 123 |
| Y[Aib]EGTFISDYSIYLDKQAAQEFVNWLLAQKPSSGAPPPSC [GIP derivative of SEQ ID NO: 18] | 13.6 |
| Y[Aib]EGTFISDYSIYLDAQAQQDFVNWLLAGGPSSGAPPPSC [GIP derivative of SEQ ID NO: 7] | 19.6 |
| Y[Aib]EGTFISDYSIALEKQAQQDFVNWLLAGGPSSGAPPPSC [GIP derivative of SEQ ID NO: 17] | 111 |
| Y[Aib]EGTFISDYSIAMDAIAQQDFVNWLLAGGPSSGAPPPSC [GIP derivative of SEQ ID NO: 2] | 13.9 |
| Y[Aib]EGTFISDYSIYLDAQAAKEFIAWLLAGGPSSGAPPPSC (not fully specified) [GIP derivative of SEQ ID NO: 10] | 13.9 |
| Y[Aib]EGTFISDYSI[Aib]MDAIAQQDFVNWLLAGGPSSGAPPPSC [GIP derivative of SEQ ID NO: 3] | 15.6 |
| Y[Aib]EGTFISDYSIYLDKQAA[Aib]EFVNWLL[Aib]GGPSSGAPPPSC [GIP derivative of SEQ ID NO: 20] | 75.3 |
| Y[Aib]EGTFISDYSIYLDKQAA[Aib]EFVNWLLAGHPSSGAPPPSC [GIP derivative of SEQ ID NO: 22] | 71.6 |
| Y[Aib]EGTFISDYSIAMDAIAQQDFVNWLLAQKPSSGAPPPSC (not fully specified) [GIP derivative of SEQ ID NO: 1] | 49.3 |
| Y[Aib]EGTFISDYSIYLDKQAQKEFVNWLL[Aib]GGPSSGAPPPSC [GIP derivative of SEQ ID NO: 23] | 87.6 |
| Y[Aib]EGTFISDYSIAMDGIAQQDFVNWLLAQKPSSGAPPPSC (not fully specified) [GIP derivative of SEQ ID NO: 16] | 11.3 |
| Y[Aib]EGTFISDYSIYMDAIAQQDFVNWLLAGGPSSGAPPPSC [GIP derivative of SEQ ID NO: 4] | 10.5 |
| Y[Aib]EGTFISDYSIYLDKQAA[Aib]EFVNWLLAQKGKKNDWKHNITQC (not fully specified) [GIP derivative of SEQ ID NO: 12] | 49.2 |
| Y[Aib]EGTFISDYSIAMDKIAQQDFVNWLLAQKPSSGAPPPSC (not fully specified) [GIP derivative of SEQ ID NO: 15] | 31.1 |
